Read-outs that look alike come from different tables or passages of the source.
Tests used:
[1] = target: T1, SARS-CoV-2 RBD-mouse Fc (Sino Biological) (SARS-CoV-2, UniProt P0DTC2 331-541)
[2] = target: T2, SARS-CoV-2 Spike protein (SARS-CoV-2 Wuhan-Hu-1, UniProt P0DTC2 14-1273); assay: cell-based or functional assay
[3] = target: T1, SARS-CoV-2 RBD-mouse Fc (Sino …); remark: listed apart in the source
[4] = target: T3, SARS-CoV-2 RBD (residues 331-550 of spike from BetaCoV/Wuhan-Hu-1/2019, accession number MN908947) (SARS-CoV-2 Wuhan-Hu-1, UniProt P0DTC2 331-550); assay: BLI (Octet): antibody on Protein A pins, SARS-CoV-2 RBD at 6, 1.5 and 0.4 µg/ml
[5] = target: T2, SARS-CoV-2 Spike protein; assay: cell-based or functional assay; remark: listed apart in the source
[6] = target: T2, SARS-CoV-2 Spike protein; assay: cell-based or functional assay; remark: listed apart in the source
[7] = target: T3, SARS-CoV-2 RBD (residues 331-550 of …)
[8] = target: T4, SARS-CoV RBD (Sino Biological) (SARS-CoV, UniProt P59594 306-527)
[9] = target: T1, SARS-CoV-2 RBD-mouse Fc (Sino …); remark: listed apart in the source
[10] = target: T2, SARS-CoV-2 Spike protein
[11] = target: T3, SARS-CoV-2 RBD (residues 331-550 of …); assay: BLI (Octet): antibody on Protein A pins, SARS-CoV-2 RBD at 6, 1.5 and 0.4 µg/ml; remark: listed apart in the source
[12] = target: T2, SARS-CoV-2 Spike protein; assay: cell-based or functional assay; remark: listed apart in the source
[13] = target: T3, SARS-CoV-2 RBD (residues 331-550 of …); assay: BLI
[14] = target: T4, SARS-CoV RBD (Sino Biological); assay: BLI
[15] = target: T3, SARS-CoV-2 RBD (residues 331-550 of …); assay: ELISA
[16] = target: T4, SARS-CoV RBD (Sino Biological); assay: ELISA
[17] = target: T2, SARS-CoV-2 Spike protein; assay: cell-based or functional assay; remark: listed apart in the source
[18] = target: SARS-CoV Spike protein (SARS-CoV, UniProt P59594 14-1255); assay: cell-based or functional assay
[19] = target: T2, SARS-CoV-2 Spike protein; remark: listed apart in the source
[20] = target: T4, SARS-CoV RBD (Sino Biological); assay: ELISA; remark: listed apart in the source
[21] = target: T1, SARS-CoV-2 RBD-mouse Fc (Sino …); remark: listed apart in the source

B1: S2A4 (antibody, V domains shown)
VH: EVQLVESGGGLVQPGGSLRLSCAASGFTFSSYWMNWVRQAPGKGLEWVANIKQDGSEKYYVDSVKGRFTISRDNAKNSLFLQMNSLRAEDTAVYYCARVWWLRGSFDYWGQGTLVTVSS
VL: NFMLTQPHSVSESPGKTVTISCTGSSGSIASNYVQWYQQRPGSAPTTVIYEDNQRPSGVPDRFSGSIDSSSNSASLTISGLKTEDEADYYCQSYDSSNHVVFGGGTKLTVL
- IC50 (read off the curve) [1]: ~0.06 µg/mL
- neutralization IC50 [2]: 3.45 µg/mL

B2: S2X129 (antibody, V domains shown)
VH: EVQLVQSGAEVKKPGASVKVSCKASGYTFTDYFMHWVRQAPGQGLEWMGWISPNSGGTNYAQRFQGRVTMTRDTSISTTYMELSRLRSDDTAVYYCARDQAYIVLAQGSGMDVWGQGTTVTVSS
VL: DIVMTQTPSSVSASVGDRVTITCRASQGISSWLAWYQQKPGKAPKLLISAASSLQSGVPSRFSGSGSGTDFTLTISTLQPEDFATYYCQQANSFPLAFGPGTKVDIK
- IC50 [3]: 0.0214 µg/mL
- Kd [4]: 0.857 nM

B3: S2X227 (antibody, V domains shown)
VH: EVQLVQSGAEVKKPGASVKVSCKASGYTFTSYYMHWVRQAPGQGLEWMGIINPGGVSTTYAHYAQKFQGRVTMTRDTSTSTVYMELSSLRSEDTAVYYCARSIAVFWGDAFDIWGQGTMVTVSS
VL: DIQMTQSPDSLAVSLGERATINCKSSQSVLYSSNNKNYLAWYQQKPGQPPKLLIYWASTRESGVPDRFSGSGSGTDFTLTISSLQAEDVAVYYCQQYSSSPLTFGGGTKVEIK
- neutralization EC50 (interpolated) [5]: 0.0053 µg/mL
- neutralization IC50 [6]: 0.00445 µg/mL
- EC50 [7]: 0.00109 µg/mL
- EC50 [8]: 1.35 µg/mL
- IC50 [9]: 0.0274 µg/mL

B4: S2A15 v1 (antibody, V domains shown)
VH: QVQLQESGPGLVKPSGTLSLTCAVSGGSISSSNWWSWVRQPPGKGLEWIGEIYHSGNTNYNPSLKSRVTISVDKSKNQFSLKLTSVTAADTAVYYCASRYCSSTSCPNWFDPWGQGTLVTVSS
VL: QSALTQPASVSGSPGQSITISCTGTSSDVGSYNLVSWYQQHPGKAPKFMIYEGSKRPSGVSNRFSGSKSGNTASLTISGLQAEDEADYYCCSYAGSSTWVFGGGTKLTVL
- EC50 [10]: 0.656 µg/mL

B5: S2A15 v2 (antibody, V domains shown)
VH: QITLKESGPGLVKPSGTLSLTCAVSGGSISSSNWWSWVRQPPGKGLEWIGEIYHSGNTNYNPSLKSRVTISVDKSKNQFSLKLTSVTAADTAVYYCASRYCSSTSCPNWFDPWGQGTLVTVSS
VL: QSALTQPASVSGSPGQSITISCTGTSSDVGSYNLVSWYQQHPGKAPKFMIYEGSKRPSGVSNRFSGSKSGNTASLTISGLQAEDEADYYCCSYAGSSTWVFGGGTKLTVL
- EC50 [10]: 0.335 µg/mL

B6: S2X127 (antibody, V domains shown)
VH: EVQLVESGGGLIQPGGSLRLSCAASGLTVRSNYMSWVRQAPGKGLEWVSVMYSGGSTFYADSVKGRSTISRDNSKNTLYLQMNSLRAEDTAVYYCARGDIADDYHYGLDVWGQGTTVTVSS
VL: QSVLTQPPSVSGAPGQRVTISCTGSTSNIGAGYNVHWYQHFPGTSPKLLIYGNSNRPSGVPDRFSGSKSGTSASLAITGLQAEDEAAYYCQSYDSNLSGVFGGGTKLTVL
- Kd [11]: < 0.001 nM
- IC50 [3]: 0.0102 µg/mL

B7: S2H14 (antibody, V domains shown)
VH: not shown
VL: NFMLTQPHSVSESPGKTVTISCTRSSGSIASNYVQWYQQRPGSSPTTVIYEDNQRPSGVPDRFSGSIDSSSNSASLTISGLKTEDEADYYCQSYDSSNQVFGGGTKLTVL
- neutralization IC50 [2]: 0.847 µg/mL

B8: S2D22 (antibody, V domains shown)
VH: EVHLVESGGGLVQPGGSLKLSCAASGFTFSGSAMHWVRQASGKGLEWVGRIRTKANTYATAYAASVKGRFTISRDDSKNTAYLQMNSLKTEDTAVYYCTRPAPYDFLSDYYTGEQLDYWGQGTLVTVSS
VL: QSVLTQPPSVSGAPGQRVTISCTGSSSNIGAGYDVHWYQQLPGAAPKLLIYGNSNRPSGVPDRFSGSKSGTSASLAITGLQAEDEADYYCQSYDSSLSGPEVFGTGTKVTVL
- neutralization IC50 [12]: 0.865 µg/mL
- neutralization IC80 [12]: 3.28 µg/mL
- neutralization IC90 [12]: 7.16 µg/mL
- neutralization IC95 [12]: 14.7 µg/mL
- Kd [13]: 5.21 nM
- Kd [14]: 53.5 nM
- EC50 [15]: 0.0353 µg/mL
- EC50 [16]: 0.0422 µg/mL
- neutralization IC50 [17]: 1.03 µg/mL
- neutralization IC50 [18]: 3.63 µg/mL

B9: S2B2 v1 (antibody, V domains shown)
VH: QVQLVESGGGVVQPGRSLRLSCAASGFTFSNFGMHWVRQAPGKGLEWVAVISYDGNNKFYADSVKGRFTISRDNSKNTLYLQMNSLRAEDTAVYYCAKPTVSFGVVIDAFDIWGQGTMVTVSS
VL: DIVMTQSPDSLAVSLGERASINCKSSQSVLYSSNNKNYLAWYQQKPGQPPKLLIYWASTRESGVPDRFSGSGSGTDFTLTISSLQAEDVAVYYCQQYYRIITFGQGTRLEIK
- EC50 [19]: 0.0107 µg/mL

B10: S2B2 v2 (antibody, V domains shown)
VH: EVQLVESGGGVVQPGRSLRLSCAASGFTFSNFGMHWVRQAPGKGLEWVAVISYDGNNKFYADSVKGRFTISRDNSKNTLYLQMNSLRAEDTAVYYCSKPTVSFGVVIDAFDIWGQGTMVTVSS
VL: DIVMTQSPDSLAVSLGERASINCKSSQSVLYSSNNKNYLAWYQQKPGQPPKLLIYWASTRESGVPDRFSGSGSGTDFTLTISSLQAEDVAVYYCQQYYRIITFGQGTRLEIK
- EC50 [19]: 0.00812 µg/mL

B11: S2H7 (antibody, V domains shown)
VH: EVQLVESGGGLVQPGGSLRLSCAASGFIVSSNYMSWVRQAPGKGLEWVSVIYSGGSTYYADSVKGRFTISRDNSKNTLYLQMNSLRAEDTSVYYCARDRQYSGSPSFDYWGQGTLVTVSS
VL: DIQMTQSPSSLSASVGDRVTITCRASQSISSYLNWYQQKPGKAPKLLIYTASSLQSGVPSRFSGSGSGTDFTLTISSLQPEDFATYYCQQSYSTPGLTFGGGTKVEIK
- neutralization IC50 [2]: 0.195 µg/mL

B12: S2D32 (antibody, V domains shown)
VH: EVQLVESGGGLVQPGRSLRLSCTSSGFTFGDYPMSWFRQAPGKGLEWVGFIRSKAYGGTTQYAASVKGRFTISRDDSKNIAYLQMNSLKTEDTAVYYCTREMWDCSGGRCYSPFFDYWGQGTLVTVSS
VL: EIVMTQSPATLSVSPGERATLSCRASQTVSSNLAWYQQKPGQAPRLLIYGASTRATGIPARFSGSGSGTEFTLTISSLQSEDFAVYYCQQYNNWRTFGQGTKLEIK
- neutralization IC50 [12]: 0.036 µg/mL
- neutralization IC80 [12]: 0.081 µg/mL
- neutralization IC90 [12]: 0.129 µg/mL
- neutralization IC95 [12]: 0.2 µg/mL
- binding result [20]: no binding
- IC50 (read off the curve) [21]: ~0.03 µg/mL

B13: S2D8 (antibody, V domains shown)
VH: EVQLLESGGGLVQPGGSLRLSCAASGFTFTTYAMSWVRQAPGKGLEWVSGISGSGGNTYHADSVKGRFTISRDNSKSTLYLQMNSLRAEDTAVYYCAKDLWFREILHGMDVWGEGTTVTVSS
VL: QSALTQPASVSGSPGQSITISCTGTSSDIGGYNYVSWYQHHPGKAPKIMIYEVTNRPSGVSNRFSGSKSGNTASLTISGLQAEDEADYYCSSYTSSNTYVFGTGTKVTVL
- neutralization IC50 [12]: 0.03 µg/mL
- neutralization IC80 [12]: 0.058 µg/mL
- neutralization IC90 [12]: 0.087 µg/mL
- neutralization IC95 [12]: 0.125 µg/mL
- binding result [20]: no binding
- IC50 (read off the curve) [1]: ~0.03 µg/mL

B14: S2D25 (antibody, V domains shown)
VH: EVQLVESGGGLVQPGGSLRLSCAASGFPFNIYAMSWVRQAPGKGLEWVSGISGSGGSTYYADSVRGRFAISRDNSKNTLYLQMNSLRAEDTAEYYCAKDLWFREILHGMDVWGKGTTVTVSS
VL: QSALTQPASVSGSPGQSITISCTGTSSDVGGYNYVSWYQHHPGRAPKLMIYEVSNRPSGVSNRFSGSKSGNTASLSISGLQAEDEADYYCSSYTSSSTYVFGAGTKVTVL
- neutralization IC50 [12]: 0.04 µg/mL
- neutralization IC80 [12]: 0.091 µg/mL
- neutralization IC90 [12]: 0.146 µg/mL
- neutralization IC95 [12]: 0.228 µg/mL
- binding result [20]: no binding
- IC50 (read off the curve) [21]: ~0.03 µg/mL

Reference: US20240059757A1 (VIR BIOTECHNOLOGY, published 2024)
